According to publication PMC7869511, “Computer-aided design of PVR mutants with enhanced binding affinity to TIGIT” (Cell Communication and Signaling : CCS, 2021):

B1: Fc-fused protein of human TIGIT [human] / wild type human PVR, full length, on CHO-K1 cells [human] (parent complex)
chain 1: MMTGTIETTGNISAEKGGSIILQCHLSSTTAQVTQVNWEQQDQLLAICNADLGWHISPSFKDRVAPGPGLGLTLQSLTVNDTGEYFCIYHTYPDGTYTGRIFLEVLESSVAEHGARFQIP
chain 2: WPPPGTGDVVVQAPTQVPGFLGDSVTLPCYLQVPNMEVTHVSQLTWARHGESGSMAVFHQTQGPSYSESKRLEFVAARLGAELRNASLRMFGLRVEDEGNYTCLFVTFPQGSRSVDIWLRVLAKPQNTAEVQKVQLTGEPVPMARCVSTGGRPPAQITWHSDLGGMPNTSQVPGFLSGTVTVTSLWILVPSSQVDGKNVTCKVEHESFEKPQLLTVNLTVYYPPEVSISGYDNNWYLGQNEATLTCDARSNPEPTGYNWSTTMGPLPPFAVAQGAQLLIRPVDKPINTTLICNVTNALGARQAELTVQVKEGPPSEHSGISRNAIIFLVLGILVFLILLGIGIYFYWSKCSREVLWHCHLCPSSTEHASASANGHVSYSAVSRENSSSQDPQTEGTR

Variants of: B1
Assay: flow cytometry on cells; 120 nM hTIGIT-Fc; CHOK1 cells overexpressing hPVR; parent: 1; read off a plot

First: chain 2 S54W
Second: chain 2 T45E
The ratio to parent of the first is higher: roughly 1.2 for the first, roughly 0.1 for the second.

Going from chain 2 S112Q to chain 2 S112R, the ratio to parent falls from roughly 1.4 to roughly 1.

Compared with chain 2 S52W, chain 2 S52R is lower in ratio to parent: roughly 1.2 for the first, roughly 1.1 for the second.

Compared with chain 2 S67W, chain 2 G111V is higher in ratio to parent: roughly 0.82 for the first, roughly 1.6 for the second.

First: chain 2 G111M
Second: chain 2 G111W
The ratio to parent of the first is higher: roughly 0.93 for the first, roughly 0.55 for the second.

Variants of: B1
Assay: flow cytometry on cells; 120 nM hTIGIT-Fc; CHOK1 cells overexpressing hPVR; parent: 3.2e+03; read off a plot

Compared with chain 2 T45E, chain 2 S67W is higher in response: roughly 100 MFI for the first, roughly 2600 MFI for the second.

Variant chain 2 G111W has a response of roughly 1700 MFI.

Variants of: B1
Assay: as above
Remark: another data set of the same source

First: chain 2 S112Q
Second: chain 2 G111V
The response of the first is lower: roughly 4400 MFI for the first, roughly 4900 MFI for the second.
